Test results taken from patent US20200024330A1.

Tests used:
Experiment in all cases: cell-based or functional assay
[1] = target: HIV-1 92RW026 envelope glycoprotein (Env) (HIV-1)
[2] = target: HIV-1 92TH021 envelope protein (Env) on pseudovirus (HIV-1)
[3] = target: HIV-1 Env of isolate 92TH021 (HIV-1)
[4] = target: HIV-1 Env of isolate 94UG103 (HIV-1)
[5] = target: HIV-1 Env of isolate MGRM-D-003 (HIV-1)
[6] = target: HIV-1 Env of isolate MGRM-G-016 (subtype G) (HIV-1)
[7] = target: HIV-1 Env of pseudovirus SC422661.8 (Acute), clade B (HIV-1)
[8] = target: HIV-1 Env of pseudovirus TRO.11 (Acute), clade B (HIV-1)
[9] = target: HIV-1 MGRM-A-009 envelope glycoprotein (Env) (HIV-1)
[10] = target: HIV-1 MGRM-C-004 Env (HIV-1)
[11] = target: HIV-1 MGRM-C-005 Env (HIV-1)
[12] = target: HIV-1 MGRM-C-014 Env (HIV-1)
[13] = target: HIV-1 MGRM-C-024 Env (HIV-1)
[14] = target: HIV-1 VLGCA1 envelope glycoprotein (Env) on pseudovirus (HIV-1)
[15] = target: HIV-1 APV_6 Env (pseudovirus) (HIV-1)
[16] = target: HIV-1 Env of isolate 97ZA012 (pseudovirus) (HIV-1 isolate 97ZA012, subtype C)
[17] = target: HIV-1 Env of isolate MG RM-AG-012 (HIV-1)
[18] = target: HIV-1 Env of isolate MG RM-D-013 (subtype D) (HIV-1)
[19] = target: HIV-1 Env of isolate MGRM-C-004 (pseudovirus) (HIV-1 isolate MGRM-C-004, subtype C)
[20] = target: HIV-1 Env of isolate MGRM-C-008 (pseudovirus) (HIV-1 isolate MGRM-C-008, subtype C)
[21] = target: HIV-1 MGRM-Chronic-B-002 Env (pseudovirus) (HIV-1)
[22] = target: HIV-1 MGRM-Chronic-B-023 Env (pseudovirus) (HIV-1)
[23] = target: HIV-1 PVO.4 Env (pseudovirus) (HIV-1)
[24] = target: HIV-1 QH0692.42 Env (pseudovirus) (HIV-1)
[25] = target: HIV-1 SF162 Env (pseudovirus) (HIV-1) (UniProt P19550)
[26] = target: HIV-1 Env of isolate MGRM-G-024 (HIV-1)
[27] = target: HIV-1 JR-CSF Env D167A (HIV-1 (isolate JR-CSF)) (UniProt P20871)
[28] = target: HIV-1 JR-CSF Env N134A (HIV-1 (isolate JR-CSF)) (UniProt P20871)
[29] = target: HIV-1 JR-CSF Env V120A (HIV-1 (isolate JR-CSF)) (UniProt P20871)
[30] = target: HIV-1 JR-CSF Env Y177A (HIV-1 (isolate JR-CSF)) (UniProt P20871)
[31] = target: HIV-1 Env of isolate 92BR020 (pseudovirus) (HIV-1 isolate 92BR020, subtype B)
[32] = target: HIV-1 Env of isolate 92WR021 (HIV-1)
[33] = target: HIV-1 Env of isolate APV-17 (pseudovirus) (HIV-1 isolate APV-17, subtype B)
[34] = target: HIV-1 Env of isolate MGRM-AE-004 (CRF01_AE), on pseudovirus (HIV-1)
[35] = target: HIV-1 Env of isolate MGRM-D-029 (subtype D), on pseudovirus (HIV-1)
[36] = target: HIV-1 Env of isolate MGRM-F1-023 (subtype F), on pseudovirus (HIV-1)

Substance	neutralization IC50 [6] [µg/mL]	IC50, pseudovirus neutralization [15] [µg/mL]	IC50 (µg/mL) neutralization [16] [µg/mL]	neutralization IC50 [17] [µg/mL]	IC50 (µg/mL), pseudovirus neutralization [18] [µg/mL]	IC50 (µg/mL) neutralization [19] [µg/mL]	IC50 (µg/mL) neutralization [20] [µg/mL]	IC50, pseudovirus neutralization [21] [µg/mL]	IC50, pseudovirus neutralization [22] [µg/mL]	IC50, pseudovirus neutralization [23] [µg/mL]	IC50, pseudovirus neutralization [24] [µg/mL]	IC50, pseudovirus neutralization [25] [µg/mL]	IC50, pseudovirus neutralization [26] [µg/mL]	Fold IC50 increase relative to wild-type [27] [fold]	Fold IC50 increase relative to wild-type [28] [fold]	Fold IC50 increase relative to wild-type [29] [fold]	Fold IC50 increase relative to wild-type [30] [fold]	also measured
1496_C09 (PG9) (TCN-109) (antibody)	1.36	–	–	–	–	–	–	–	–	–	–	–	–	–	–	–	–	IC50 (µg/ml), pseudovirus neutralization [1]: 0.27 µg/mL; neutralization IC50 [2]: 0.111 µg/mL; IC50 (µg/mL), pseudovirus neutralization [3]: 0.059 µg/mL; IC50 (µg/ml), pseudovirus neutralization [3]: 0.09 µg/mL; IC50 [4]: 0.34 µg/mL; IC50 (µg/mL), pseudovirus neutralization [5]: 0.033 µg/mL; IC50 (µg/ml), pseudovirus neutralization [7]: 0.79 µg/mL; IC50 (µg/ml), pseudovirus neutralization [8]: 5.43 µg/mL; IC50 (µg/ml), pseudovirus neutralization [9]: 0.03 µg/mL; IC50 [10]: 1.18 µg/mL; IC50 [11]: 2.98 µg/mL; IC50 [12]: 0.64 µg/mL; IC50 [13]: 0.22 µg/mL; IC50 (µg/ml), pseudovirus neutralization [14]: 0.07 µg/mL
4838_L06 (PGT-121) (antibody)	–	0.018	0.002	> 50	> 50	0.011	0.012	0.386	0.005	0.137	0.823	0.005	–	–	–	–	–	–
4858_P08 (PGT-123) (antibody)	–	0.023	0.002	> 50	> 50	0.009	0.011	0.234	0.055	0.105	0.158	0.005	0.032	1.2	0.4	1.1	2.4	–
4877_D15 (PGT-122) (antibody)	–	0.019	0.004	> 50	> 50	0.02	0.028	1.8	0.01	0.689	0.493	0.009	0.033	–	–	–	–	–
5114_A19 (PGT-128) (antibody)	–	–	–	–	–	–	–	–	–	–	–	–	0.095	0.3	1.2	1.4	1.4	IC50 (µg/mL) neutralization [31]: 0.009 µg/mL; neutralization IC50 [32]: 0.005 µg/mL; neutralization IC50 [4]: 0.011 µg/mL; IC50 (µg/mL) neutralization [33]: 0.016 µg/mL; IC50, single-round pseudovirus neutralization [34]: > 50 µg/mL; IC50 [5]: 0.019 µg/mL; IC50, pseudovirus neutralization [35]: > 50 µg/mL; IC50, pseudovirus neutralization [36]: 0.007 µg/mL
5123_A06 (PGT-125) (antibody)	–	0.021	2.46	> 50	> 50	1.82	> 50	0.064	> 50	0.042	0.048	0.004	> 50	1.7	0.5	0.5	1.1	–
5136_H01 (PGT-131) (antibody)	–	–	–	–	–	–	–	–	–	–	–	–	10.7	1.2	0.5	0.7	5.3	IC50 (µg/mL) neutralization [31]: 6.16 µg/mL; neutralization IC50 [32]: 0.012 µg/mL; neutralization IC50 [4]: 1.1 µg/mL; IC50 (µg/mL) neutralization [33]: > 50 µg/mL; IC50, single-round pseudovirus neutralization [34]: > 50 µg/mL; IC50 [5]: 19.6 µg/mL; IC50, pseudovirus neutralization [35]: > 50 µg/mL; IC50, pseudovirus neutralization [36]: > 50 µg/mL
5141_B17 (PGT-126) (antibody)	–	0.007	0.042	> 50	> 50	0.033	2.12	0.078	> 50	0.017	0.048	0.003	> 50	1.6	0.6	0.7	0.9	–
5145_B14 (PGT-127) (antibody)	–	0.04	> 50	> 50	> 50	0.532	> 50	0.279	> 50	0.164	0.129	0.019	> 50	1.6	1	1.5	2.9	–
5329_C19 (PGT-136) (antibody)	–	–	–	–	–	–	–	–	–	–	–	–	0.152	–	–	–	–	IC50 (µg/mL) neutralization [31]: 8.61 µg/mL; neutralization IC50 [32]: > 50 µg/mL; neutralization IC50 [4]: > 50 µg/mL; IC50 (µg/mL) neutralization [33]: > 50 µg/mL; IC50, single-round pseudovirus neutralization [34]: > 50 µg/mL; IC50 [5]: > 50 µg/mL; IC50, pseudovirus neutralization [35]: > 50 µg/mL; IC50, pseudovirus neutralization [36]: > 50 µg/mL
5343_B08 (PGT-135) (antibody)	–	–	–	–	–	–	–	–	–	–	–	–	0.062	0.7	0.2	1.4	0.3	IC50 (µg/mL) neutralization [31]: 0.073 µg/mL; neutralization IC50 [32]: > 50 µg/mL; neutralization IC50 [4]: > 50 µg/mL; IC50 (µg/mL) neutralization [33]: > 50 µg/mL; IC50, single-round pseudovirus neutralization [34]: > 50 µg/mL; IC50 [5]: > 50 µg/mL; IC50, pseudovirus neutralization [35]: 30.8 µg/mL; IC50, pseudovirus neutralization [36]: 0.088 µg/mL
5345_I01 (PGT-137) (antibody)	–	–	–	–	–	–	–	–	–	–	–	–	0.051	–	–	–	–	IC50 (µg/mL) neutralization [31]: 7.81 µg/mL; neutralization IC50 [32]: 3.52 µg/mL; neutralization IC50 [4]: > 50 µg/mL; IC50 (µg/mL) neutralization [33]: > 50 µg/mL; IC50, single-round pseudovirus neutralization [34]: > 50 µg/mL; IC50 [5]: > 50 µg/mL; IC50, pseudovirus neutralization [35]: > 50 µg/mL; IC50, pseudovirus neutralization [36]: > 50 µg/mL
PGT-121 (antibody)	–	–	–	–	–	–	–	–	–	–	–	–	–	–	–	–	–	IC50 (µg/mL), pseudovirus neutralization [3]: > 50 µg/mL; IC50 (µg/mL), pseudovirus neutralization [32]: 0.009 µg/mL; IC50 (µg/mL), pseudovirus neutralization [4]: 2.52 µg/mL; Primary Neutralization Index (B cell culture well 4838 L06) [4]: 1.4; Primary Neutralization Index (B cell culture well 4873 E03) [4]: 0.8
PGT-122 (antibody)	–	–	–	–	–	–	–	–	–	–	–	–	–	–	–	–	–	IC50 (µg/mL), pseudovirus neutralization [3]: > 50 µg/mL; IC50 (µg/mL), pseudovirus neutralization [32]: 0.021 µg/mL; IC50 (µg/mL), pseudovirus neutralization [4]: 2.04 µg/mL
PGT-141 (4964_G22; 4993_K13) (antibody)	4.69	–	–	–	–	–	–	–	–	–	–	–	–	–	–	–	–	–
PGT-142 (4995_E20) (antibody)	8.17	–	–	–	–	–	–	–	–	–	–	–	–	–	–	–	–	–
PGT-143 (4980_N08) (antibody)	7.6	–	–	–	–	–	–	–	–	–	–	–	–	–	–	–	–	–
PGT-144 (4970_K22) (antibody)	> 50	–	–	–	–	–	–	–	–	–	–	–	–	–	–	–	–	–
PGV04 (antibody)	0.019	–	–	–	–	–	–	–	–	–	–	–	–	–	–	–	–	IC50 (µg/mL), pseudovirus neutralization [3]: 1.29 µg/mL; IC50 [4]: 0.202 µg/mL; IC50 (µg/mL), pseudovirus neutralization [5]: > 50 µg/mL
VRC01 (antibody)	0.063	–	–	–	–	–	–	–	–	–	–	–	–	–	–	–	–	–
